From PMC2847226 come the findings set out here.

Data set [1] concerns the target T1, Trx-HIS6-hTERT(1-200) (hTEN) (human, UniProt O14746 1-200). In words: competition EMSA. On the technique in general: A gel shift assay detects complexes by their altered migration in electrophoresis.
Data set [2] deals with T1, Trx-HIS6-hTERT(1-200) (hTEN). Put plainly: competition EMSA. The source holds these as a separate data set.
Data set [3] has as its target Trx-HIS6-hTERT(1-200) T116A/T117A/S118A (human, UniProt O14746 1-200, T116A;T117A;S118A). In words: EMSA.
Data set [4] has as its target Trx-HIS6-hTERT(1-200) Y18A (human, UniProt O14746 1-200, Y18A). Put plainly: EMSA.
Data set [5] has as its target Trx-HIS6-hTERT(1-200) Q169A (human, UniProt O14746 1-200, Q169A). In words: EMSA.
The target of data set [6] is T1, Trx-HIS6-hTERT(1-200) (hTEN). Put plainly: EMSA.
The target is the same in data set [7]. Put plainly: competition EMSA. The source holds these as a separate data set.
The target is the same in data set [8]. Put plainly: competition EMSA. The source holds these as a separate data set.
For data set [9] the target is unchanged. Put plainly: competition EMSA. This is another data set of the same source.

T1 sequence (O14746 1-200): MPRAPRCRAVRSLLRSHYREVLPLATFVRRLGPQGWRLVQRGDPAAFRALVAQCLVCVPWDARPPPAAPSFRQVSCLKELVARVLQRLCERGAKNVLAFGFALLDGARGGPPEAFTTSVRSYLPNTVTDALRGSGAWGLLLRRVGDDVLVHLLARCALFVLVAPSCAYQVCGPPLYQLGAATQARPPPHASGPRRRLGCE
Sequence of Trx-HIS6-hTERT(1-200) Y18A (O14746 1-200 Y18A): as the sequence (O14746 1-200) above, with Y18A counted along it
Sequence of Trx-HIS6-hTERT(1-200) T116A/T117A/S118A (O14746 1-200 T116A/T117A/S118A): as the sequence (O14746 1-200) above, with T116A, T117A, S118A counted along it
Sequence of Trx-HIS6-hTERT(1-200) Q169A (O14746 1-200 Q169A): as the sequence (O14746 1-200) above, with Q169A counted along it

In the case of GGGTTAGGGTTAGGGTTA (ssDNA) [II], the binding result in data set [1] was “binds”. In the case of GTTAGGGTTAGGG (ssDNA) [IV], the binding result in [2] is listed as “binds”.

For the molecule TTAGGGTTAGGGTTAGGG (ssDNA) [(TTAGGG)3 / I], the binding result in data set [3], in data set [4], in data set [5] and in [6] was “binds” each time. As to GGTTATTATTAGG (ssDNA) [VI.TA6], the binding result in data set [7] is given as “binds”. For GGGTTAGGGTTAGGG (ssDNA) [III], in [1], the binding result is listed as “binds”. In the case of TTAGGGTTAGCGTTAGGG (ssDNA) [I.C11], in data set [8], the binding signal was 7 fold lower apparent affinity vs I (relative IC50). On to GGTTAGGGTTAGG (ssDNA) [VI / (GGTTAG)2G], for which, in data set [9], the binding result is “binds”.
